Self-cleavage data for 167 variants are collected here from the RNAGym collection of RNA variant scans (doi:10.7554/elife.90254).

The labels stand for the following.
B1: LINE1-full (parent)
chain: UACGUAGGUGGUUUUCCCCUGAUAGUGCUAAGGGGGCCUGGAAGUUUGGACUGGGCAGAGCUCAACACAGCGUGGCAAAGUGGCUGUGGCUAGACUGCCUCUCUGGAUUCCUCGUCACUCAGCAGGGCAUCUCUGAGAGAAAUGCC

Variants of B1 are the subject of this data set. The experiment in a line: self-cleavage, relative activity (ratio to wild type); higher = more cleavage; in vitro, sequencing; the parent is a self-cleaving ribozyme.
For A2G U115C, the self-cleavage worked out at 1.43. The value for C3U A67G was 0; that for A2G C19U was 0.56.

Turning to C3U U14A, the self-cleavage stood at 0.24. As for A2G U112C, the figure is 0.87; as for A2G A129G, 0.46.

In the case of A2C A107G, the self-cleavage worked out at 1.15. The value for G4A U15C was 1.11. The value for U1C A57U was 0.09; that for G4A U26C was 0.61; that for A2G A42U was 0.69. As for A2G A42G, the figure is 0.72; as for A2G A78G, 1.04. In the case of A2G U143C, the self-cleavage came to 1.2. The value for A2G U143A was 0.99.

With U1C U134C, the self-cleavage amounted to 0.38.

On to C3U U9A, for which the self-cleavage was determined as 0.84. Regarding U1C A124U, the self-cleavage came to 1.07.

Consider G4A A92G, for which the self-cleavage was found to be 0. The value for A2G C66U was 0.4; that for A2G U26G was 0.21. As for A2U A67G, the figure is 0.61. With U1C U5C, the self-cleavage is 0.87.

Take C3A U39A: the self-cleavage stood at 0.96. As for A2U A64U, the figure is 0.37. The value for C3G A78G was 0.6; that for U1C A138U was 0.57. The value for C3G U52A was 0.8; that for U1C C68U was 0.13. As for C3U A69G, the self-cleavage came to 0.53. For C3U G8C, the self-cleavage was 0.53. Turning to G4A A94G, the self-cleavage was 0.21.

Consider A2G G54A, for which the self-cleavage turned out to be 0.27. As for A2G G27A, the figure is 0.19. The value for C3A A64G was 0; that for U1C G8A was 0.49; that for U1C G32U was 0.21. As to A2G A30U, the self-cleavage is 0.85. The value for U1G G114C was 0.52; that for C3U U13C was 0.74; that for G4A G10A was 1.21. The value for C3U U26G was 0.87. As for C3U U26C, the figure is 1.01. On to C3U U26A, for which the self-cleavage is 1.04. The value for C3A A129G was 0.88; that for U1C U39A was 0.75. Turning to A2C A65U, the self-cleavage amounted to 0.17. Take C3A U96C: the self-cleavage was determined as 0.2.

Take A2G G53A: the self-cleavage amounted to 0.74. The value for C3U A57U was 0.17; that for A2G A43U was 1.34. On to U1C A92G, for which the self-cleavage worked out at 0.14. The value for U1C G34U was 0.68; that for C3U A140G was 0.97. With C3U U143C, the self-cleavage was found to be 0.62. For A2G A77G, the self-cleavage was found to be 1.36.

Regarding G4A U39A, the self-cleavage is 0.54.

Take A2G A117U: the self-cleavage was found to be 1. A2G C90U: the self-cleavage came out at 0.15. As for U1C C98U, the figure is 0.13; as for U1G U39C, 0.72; as for C3U A50G, 0.33. The value for A2U U119C was 1.26; that for C3U U73C was 1.49.

As for C3U U73A, the self-cleavage was 0.91. A2U A121G: the self-cleavage was 1.53. The value for U1C G89U was 0; that for U1C C133U was 1.16.

For G4A A136U, the self-cleavage amounted to 1.51. As for C3U U23A, the figure is 0.71; as for A2C A121G, 0.95; as for U1C U20C, 0.79.

In the case of A2G C76U, the self-cleavage came out at 1.17. As for U1C G36A, the self-cleavage is 1.06.

For the variant U1C A42G, the self-cleavage came to 0.92. In the case of C3G A69U, the self-cleavage is 0.11. The value for U1C A141U was 0.71. The value for U1C A141G was 0.97; that for U1C U115A was 0.98; that for C3A A69G was 0.31.

In the case of A2G U132G, the self-cleavage turned out to be 1.6. The value for A2U A141G was 1; that for U1C U102C was 1.03; that for C3U U52C was 1.31. The value for A2G A6G was 0.68; that for C3A G32A was 0.88; that for A2G U5A was 0.42. The value for G4A G93A was 0.03; that for U1C U100A was 0.69.

Consider U1C A64U, for which the self-cleavage was determined as 0.29. As for U1C A64G, the figure is 0.2; as for U1C C63U, 0.24. As for C3U U12G, the figure is 1.13. As for C3U U12C, the figure is 0.57; as for A2G G105A, 1.27; as for A2G G105U, 1.3.

Take A2C C56U: the self-cleavage was determined as 0.11. The value for G4A C145U was 1.11. The value for C3G A141G was 0.66. For the variant G4A C116A, the self-cleavage is 1.22. As to A2G U14C, the self-cleavage stood at 0.93.

In the case of A2G U39A, the self-cleavage is 0.89. As for U1C G48A, the figure is 0.9; as for G4A, 0.89; as for A2G U62A, 0.09. As to A2G U62C, the self-cleavage stood at 0.09. As for U1C G105A, the figure is 0.12. As for A2U A138G, the figure is 1.06; as for U1C A77C, 1.02.

As to C3A A121U, the self-cleavage is 0.58. As for U1C U104C, the figure is 0.68; as for U1C U104A, 0.75; as for G4A C19U, 0.59. As for C3U A24U, the figure is 1.15.

For A2U A142C, the self-cleavage is 1.09. With G4A A30G, the self-cleavage worked out at 0.59. As for U1C U29G, the figure is 1.45. The value for G4A A43U was 1.21; that for C3U C118U was 1.25. As for U1A U115C, the figure is 1.3. As for U1A U115A, the self-cleavage turned out to be 1.1. The value for C3U U112A was 1.38; that for A2C A57U was 0.11.

Consider A2U A59G, for which the self-cleavage stood at 0. The value for U1C A67C was 0.09; that for G4A A67G was 0.62; that for C3A C98A was 0.28. As for A2G U13C, the figure is 0.64; as for A2G U13A, 0.99; as for U1C C116A, 1.42. The value for A2C U26C was 1.05; that for C3G A50U was 0.16. In the case of C3A A65G, the self-cleavage stood at 0.29. G4A A107G: the self-cleavage was 1.6. For U1C U73G, the self-cleavage was 1.53.

Consider U1C U73C, for which the self-cleavage was 1.04. As for A2G A59G, the figure is 0.39; as for C3U U15C, 0.45. As for U1C G41A, the self-cleavage stood at 0.52. As to U1C U26C, the self-cleavage came out at 0.64.

U1C U26G: the self-cleavage was 0.72.

With G4A A64U, the self-cleavage stood at 0.72.

Regarding C3U U45C, the self-cleavage worked out at 0.8.

Regarding C3U U45A, the self-cleavage turned out to be 0.93. As for U1C G83U, the figure is 0.25.

In the case of C3A U109C, the self-cleavage is 0.53. As for C3U U130C, the figure is 0.31; as for G4A U13C, 1.12; as for C3U A64G, 0.21. The value for A2G C17A was 1.56; that for C3A A124U was 0.6; that for A2C was 1.24.

In the case of A2U, the self-cleavage was 0.98.

Consider A2G, for which the self-cleavage stood at 0.85. As for G4A A24U, the figure is 1.8. For the variant C3A U9C, the self-cleavage is 1.11. As for C3U A59U, the figure is 0.56; as for U1A U112A, 1.2; as for A2G A24G, 0.71.

Regarding C3U A117U, the self-cleavage was determined as 1.31. As for C3U A117G, the self-cleavage was found to be 0.45. As for C3U A117C, the figure is 0.75; as for G4A A31G, 0.6.

As to A2C A141G, the self-cleavage was determined as 0.9.

Regarding A2C C17G, the self-cleavage amounted to 1.03. The value for A2G A140G was 0.94.

Consider G4A G34A, for which the self-cleavage amounted to 0.66.
